Measurements reported in patent US20200033363A1 (GARVAN INSTITUTE OF MEDICAL RESEARCH, published 2020).
Residue numbers refer to the chain shown, from its start. Values belong to the binder of their own block, whether it stands above or below them.

Tests used:
[1] = target: T1, human VEGFA 121 (human, UniProt P15692-9 27-147, biotinylated (BLI assays)); assay: bio-layer interferometry on immobilised VEGF (biotinylated VEGFA 121 by paragraph 199)
T1 construct: also called biotinylated VEGF
T1 sequence (looked up): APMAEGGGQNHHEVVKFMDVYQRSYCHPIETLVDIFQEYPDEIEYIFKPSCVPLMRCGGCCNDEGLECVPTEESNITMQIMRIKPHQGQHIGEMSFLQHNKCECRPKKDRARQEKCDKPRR

[2] = target: T2, mouse VEGFA164 (mouse, UniProt Q00731-2 27-190); assay: biolayer interferometry
T2 sequence (looked up): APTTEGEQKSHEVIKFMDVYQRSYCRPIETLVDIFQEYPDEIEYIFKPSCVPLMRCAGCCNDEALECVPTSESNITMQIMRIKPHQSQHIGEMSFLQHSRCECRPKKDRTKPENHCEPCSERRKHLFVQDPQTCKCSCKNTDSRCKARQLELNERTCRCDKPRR

[3] = target: T3, human VEGFB (human, UniProt P49765-2 22-188, limits assumed); assay: biolayer interferometry
T3 sequence (looked up): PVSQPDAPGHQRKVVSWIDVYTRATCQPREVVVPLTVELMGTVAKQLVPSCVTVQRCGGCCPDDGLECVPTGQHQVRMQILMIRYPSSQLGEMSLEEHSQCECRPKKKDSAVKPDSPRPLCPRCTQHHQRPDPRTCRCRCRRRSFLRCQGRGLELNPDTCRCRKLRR

[4] = target: T4, human PlGF (human, UniProt P49763-2 19-149, limits assumed); assay: biolayer interferometry
T4 sequence (looked up): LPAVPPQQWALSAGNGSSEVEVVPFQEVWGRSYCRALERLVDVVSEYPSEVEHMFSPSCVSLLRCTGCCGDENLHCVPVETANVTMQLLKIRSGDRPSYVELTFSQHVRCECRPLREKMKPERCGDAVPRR

[5] = target: T1, human VEGFA 121; assay: biolayer interferometry, generally the same method as for Ig5 and Ig12; immobilized biotinylated VEGF
[6] = target: T5, hen egg-white lysozyme (HEL) (hen, UniProt P00698 19-147); assay: biolayer interferometry (Example 5); printed as 'Affinity (nM)' in Table 4
T5 construct: Bought protein; It was biotinylated for phage selection; In BLI it was captured through biotinylated HyHEL-10 or HyHEL-5 Fab; also called hen egg white lysozyme antigen

[7] = target: T5, hen egg-white lysozyme (HEL); assay: biolayer interferometry (BLItz); HEL captured by biotinylated HyHEL-10 Fab on streptavidin sensors; Ig5 at 2000, 1000, 500 nM
[8] = target: T5, hen egg-white lysozyme (HEL); assay: printed as 'Affinity (nM)' in Table 4; method not given; differs from the 30 nM of Example 5
[9] = target: T5, hen egg-white lysozyme (HEL); assay: biolayer interferometry (BLItz); HEL captured by biotinylated HyHEL-5 Fab on streptavidin sensors; Ig12 at 1000, 750, 375 nM

T5 sequence (P00698 19-147): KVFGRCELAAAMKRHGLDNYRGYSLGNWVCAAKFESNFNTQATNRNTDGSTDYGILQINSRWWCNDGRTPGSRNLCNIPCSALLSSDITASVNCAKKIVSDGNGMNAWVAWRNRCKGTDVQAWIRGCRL

B1: VLD9 fused to mouse IgG2c hinge-Fc region (VLD9-Fc, long native hinge) (Fc fusion)
chain: DIQMTQSPSSLSASVGDRVTITCRASRAIAAYLNWYQQKPGKAPKLLIYAYSDLQSGVPSRFSGSGSGTDFTLTISSLQPEDFATYYCQQVWANPYTFGQGTKVEIKRA
notes: domain: hinge and Fc region; Expressed in Expi293 cells; also called VLD9-Fc native hinge; VLD9-Fc fusion protein; not shown: Mouse IgG2c hinge and Fc region
Kd [1]: ~3 nM
Kd [2]: < 10 nM
binding result [3]: no binding
binding result [4]: no binding

B3: immunoglobulin homodimer Ig5 (other)
VL: DIQMTQSPSSLSASVGDRVTITCRASQDIAAALNWYQQKPGKAPKLLIYASSYLQSGVPSRFSGSGSGTDFTLTISSLQPEDFATYYCQQDGYYPATFGQGTKVEIKR
notes: also called VL5; Ig52
Kd [6]: 130 nM
koff [7]: 0.0057 s⁻¹
kon [7]: 43000 M⁻¹ s⁻¹

Now from value to binder:

Kd [5]: < 10 nM
B2: VLD9 homodimer (other)
VL: B1 chain
notes: Homodimer of two identical human light chain variable domains selected on VEGF; Expressed generally as Ig5 and Ig12 were; also called VLD9 dimer; immunoglobulin VLD9

Kd [8]: 64 nM
Kd [9]: 30 nM
koff [9]: 0.0025 s⁻¹
kon [9]: 84000 M⁻¹ s⁻¹
B4: immunoglobulin homodimer Ig12 (other)
VL: B3 VL with A31S, A32D, A50S, S51D, D91Y, G92Y, Y93M, Y94I, A96S
notes: Homodimer of two identical human Vkappa1 light chain variable domains, expressed in E. coli and purified on Protein L. Structure with HEL is PDB 4N1C; also called VL12; Ig122
